Data reported in patent US20260116921A1, “PEPTIDE INHIBITORS OF INTERLEUKIN-23 RECEPTOR AND THEIR USE TO TREAT INFLAMMATORY DISEASES” (priority 2018, published 2026).
Bridge positions count the residues as written; N and C are the ends. Square brackets hold non-standard residues; d marks the D form. Trp(7-Me) = Cc1cccc2c(C[C@H](N)C(=O)O)c[nH]c12; 2Nal = N[C@@H](Cc1ccc2ccccc2c1)C(=O)O; AEF = NCCOc1ccc(C[C@H](N)C(=O)O)cc1; Cit = NC(=O)NCCC[C@H](N)C(=O)O; Pen = CC(C)(S)[C@H](N)C(=O)O; αMeK = C[C@](N)(CCCCN)C(=O)O; Abu = CC[C@H](N)C(=O)O; Aib = CC(C)(N)C(=O)O; βAla = NCCC(=O)O

Columns and labels:
[1] = target: T1, IL-23R (human, UniProt Q5VWK5 24-629); assay: cell-based or functional assay
T1 sequence (looked up): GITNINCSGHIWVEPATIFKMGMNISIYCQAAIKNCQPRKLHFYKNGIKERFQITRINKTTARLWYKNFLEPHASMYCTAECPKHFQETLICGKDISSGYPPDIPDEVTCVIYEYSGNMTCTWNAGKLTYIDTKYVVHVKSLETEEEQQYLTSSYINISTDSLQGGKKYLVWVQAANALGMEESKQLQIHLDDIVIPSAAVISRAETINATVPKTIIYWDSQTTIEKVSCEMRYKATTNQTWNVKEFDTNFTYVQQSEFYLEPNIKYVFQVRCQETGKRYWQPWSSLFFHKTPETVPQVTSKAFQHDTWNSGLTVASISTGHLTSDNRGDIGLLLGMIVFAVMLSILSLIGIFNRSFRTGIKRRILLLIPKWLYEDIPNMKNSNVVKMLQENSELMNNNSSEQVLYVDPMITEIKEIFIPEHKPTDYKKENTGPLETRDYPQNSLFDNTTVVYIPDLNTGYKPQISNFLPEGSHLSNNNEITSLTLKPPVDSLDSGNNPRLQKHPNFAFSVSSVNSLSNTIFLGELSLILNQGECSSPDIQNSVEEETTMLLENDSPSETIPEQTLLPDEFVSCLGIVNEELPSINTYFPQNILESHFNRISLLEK

[2] = target: T1, IL-23R; assay: cell-based or functional assay; remark: listed apart in the source

B1: SEQ ID NO: 242 (peptide)
peptide: XNTXKXXXXKNX
modifications: Ac-[Pen]-NT-[W(7-Me)]-[Lys(Ac)]-[Pen]-Phe[4-(2-aminoethoxy)]-[2-Nal]-[a-MeLys]-[Lys(Ac)]-N-[bA]-NH2; Pen-Pen disulfide
- pStat3 HTRF (nM) IC50 [1]: < 1 nM
- NK Cell Assay (nM) IC50 [2]: < 10 nM

B2: SEQ ID NO: 245 (peptide)
peptide: XNTXKXXXXKNL
modifications: Ac-[Pen]-NT-[W(7-Me)]-[Lys(Ac)]-[Pen]-Phe[4-(2-aminoethoxy)]-[2-Nal]-[a-MeLys]-[Lys(Ac)]-N-[(D)Leu]-NH2; Pen-Pen disulfide
- pStat3 HTRF (nM) IC50 [1]: < 1 nM
- NK Cell Assay (nM) IC50 [2]: < 10 nM

B3: SEQ ID NO: 251 (peptide)
peptide: XNTXKXXXXKNV
modifications: Ac-[Pen]-NT-[W(7-Me)]-[Lys(Ac)]-[Pen]-Phe[4-(2-aminoethoxy)]-[2-Nal]-[a-MeLys]-[Lys(Ac)]-N-[(D)Val]-NH2; Pen-Pen disulfide
- pStat3 HTRF (nM) IC50 [1]: < 1 nM
- NK Cell Assay (nM) IC50 [2]: < 10 nM

B4: SEQ ID NO: 252 (peptide)
peptide: XNTXKXXXXKNK
modifications: Ac-[Pen]-NT-[W(7-Me)]-[Lys(Ac)]-[Pen]-Phe[4-(2-aminoethoxy)]-[2-Nal]-[a-MeLys]-[Lys(Ac)]-N-[(D)Lys]-NH2; Pen-Pen disulfide
- pStat3 HTRF (nM) IC50 [1]: < 1 nM
- NK Cell Assay (nM) IC50 [2]: < 10 nM

B5: SEQ ID NO: 258 (peptide)
peptide: XNTXKXXXXKNF
modifications: Ac-[Pen]-NT-[W(7-Me)]-[Lys(Ac)]-[Pen]-Phe[4-(2-aminoethoxy)]-[2-Nal]-[a-MeLys]-[Lys(Ac)]-N-[(D)Phe]-NH2; Pen-Pen disulfide
- pStat3 HTRF (nM) IC50 [1]: < 1 nM
- NK Cell Assay (nM) IC50 [2]: < 10 nM

B6: SEQ ID NO: 259 (peptide)
peptide: Ac-[Pen]NT[Trp(7-Me)][Cit][Pen][AEF][2Nal][αMeK]K(Ac)N[dY]-NH2
modifications: disulfide 1-6 (inferred)
- pStat3 HTRF (nM) IC50 [1]: < 1 nM
- NK Cell Assay (nM) IC50 [2]: < 10 nM

B7: SEQ ID NO: 261 (peptide)
peptide: Ac-[Pen]NT[Trp(7-Me)][Cit][Pen][AEF][2Nal][αMeK]K(Ac)N[dS]-NH2
modifications: disulfide 1-6 (inferred)
- pStat3 HTRF (nM) IC50 [1]: < 1 nM
- NK Cell Assay (nM) IC50 [2]: < 10 nM

B8: SEQ ID NO: 264 (peptide)
peptide: Ac-[Pen]NT[Trp(7-Me)][Cit][Pen][AEF][2Nal][αMeK]K(Ac)N[Aib]-NH2
modifications: disulfide 1-6 (inferred)
- pStat3 HTRF (nM) IC50 [1]: < 1 nM
- NK Cell Assay (nM) IC50 [2]: < 10 nM

B9: SEQ ID NO: 232 (peptide)
peptide: XNTXQXXXXKNX
modifications: Ac-[Pen]-NT-[W(1-Me)]-Q-[Pen]-Phe[4-(2-aminoethoxy)]-[2-Nal]-[a-MeLys]-[Lys(Ac)]-N-[bA]-NH2; Pen-Pen disulfide
- NK Cell Assay (nM) IC50 [2]: < 10 nM

B10: SEQ ID NO: 234 (peptide)
peptide: XNTXXXXXXKNX
modifications: Ac-[Pen]-NT-[W(7-Me)]-[a-MeLys]-[Pen]-Phe[4-(2-aminoethoxy)]-[2-Nal]-[a-MeLeu]-[Lys(Ac)]-N-[bA]-NH2; Pen-Pen disulfide
- NK Cell Assay (nM) IC50 [2]: < 10 nM

B11: SEQ ID NO: 236 (peptide)
peptide: XNTXQXXXXXNX
modifications: Ac-[Pen]-NT-[W(7-Me)]-Q-[Pen]-Phe[4-(2-aminoethoxy)]-[2-Nal]-[a-MeLys]-[Aib]-N-[bA]-NH2; Pen-Pen disulfide
- NK Cell Assay (nM) IC50 [2]: < 10 nM

B12: SEQ ID NO: 238 (peptide)
peptide: Ac-[Pen][Cit]T[Trp(7-Me)]Q[Pen][AEF][2Nal][αMeK]K(Ac)N[βAla]-NH2
modifications: disulfide 1-6
SMILES: CC(=O)NCCCC[C@H](NC(=O)[C@](C)(CCCCN)NC(=O)[C@H](Cc1ccc2ccccc2c1)NC(=O)[C@H](Cc1ccc(OCCN)cc1)NC(=O)[C@H]1NC(=O)[C@H](CCC(N)=O)NC(=O)[C@H](Cc2c[nH]c3c(C)cccc23)NC(=O)[C@H]([C@@H](C)O)NC(=O)[C@H](CCCNC(N)=O)NC(=O)[C@@H](NC(C)=O)C(C)(C)SSC1(C)C)C(=O)N[C@@H](CC(N)=O)C(=O)NCCC(N)=O
- NK Cell Assay (nM) IC50 [2]: < 10 nM

B13: SEQ ID NO: 239 (peptide)
peptide: XKTXQXXXXKNX
modifications: Ac-[Pen]-[Lys(Ac)]-T-[W(7-Me)]-Q-[Pen]-Phe[4-(2-aminoethoxy)]-[2-Nal]-[a-MeLys]-[Lys(Ac)]-N-[bA]-NH2; Pen-Pen disulfide
- NK Cell Assay (nM) IC50 [2]: < 10 nM

B14: SEQ ID NO: 271 (peptide)
peptide: XNTXKXXXXKSX
modifications: Ac-[Pen]-N-T-[W(7-Me)]-[Lys(Ac)]-[Pen]-Phe[4-(2-aminoethoxy)]-[2-Nal]-[a-MeLys]-[Lys(Ac)]-S-[bA]-NH2; Pen-Pen disulfide
- NK Cell Assay (nM) IC50 [2]: < 10 nM

B15: SEQ ID NO: 272 (peptide)
peptide: XNTXKXXXXKHX
modifications: Ac-[Pen]-N-T-[W(7-Me)]-[Lys(Ac)]-[Pen]-Phe[4-(2-aminoethoxy)]-[2-Nal]-[a-MeLys]-[Lys(Ac)]-H-[bA]-NH2; Pen-Pen disulfide
- NK Cell Assay (nM) IC50 [2]: < 10 nM

B16: SEQ ID NO: 273 (peptide)
peptide: XNTXKXXXXEXX
modifications: Ac-[Pen]-N-T-[W(7-Me)]-[Lys(Ac)]-[Pen]-Phe[4-(2-aminoethoxy)]-[2-Nal]-[a-MeLys]-E-[bA]-[bA]-NH2; Pen-Pen disulfide
- NK Cell Assay (nM) IC50 [2]: < 10 nM

B17: SEQ ID NO: 282 (peptide)
peptide: XNTXQXXXXENX
modifications: Ac-[Pen]-N-T-[W(7-Me)]-Q-[Pen]-Phe[4-(2-aminoethoxy)]-[2-Nal]-[a-MeLys]-E-N-[bA]-NH2; Pen-Pen disulfide
- NK Cell Assay (nM) IC50 [2]: < 10 nM

B18: SEQ ID NO: 289 (peptide)
peptide: Ac-[Pen]NT[Trp(7-Me)]K(Ac)[Pen][2Nal][2Nal][αMeK]K(Ac)N[dL]-NH2
modifications: disulfide 1-6 (inferred)
- NK Cell Assay (nM) IC50 [2]: < 10 nM

B19: SEQ ID NO: 324 (peptide)
peptide: Ac-[dR][Abu]QT[Trp(7-Me)]K(Ac)C[AEF][2Nal][αMeK]K(Ac)N[dK]-NH2
modifications: thioether 2-7
- NK Cell Assay (nM) IC50 [2]: < 10 nM
